Positions of bridges follow the written chain, without caps; N, C: chain ends. Non-standard residues stand in square brackets, D forms with d. No end group written: not given here. Aib = CC(C)(N)C(=O)O
What follows are binders tested against Ras (residues 1-166 of human Ha-Ras) (human, UniProt P01112 1-166) (assay: cell-based or functional assay).

Binder	% Inhibition (Sos-mediated nucleotide exchange from Ras, mantGDP) [%]
FEAIYRLEKLKAEEAN (staple (positions not given here); lactam 9-13; also: HBS: N-terminal main-chain i,i+4 H-bond replaced by C-C bond (ring-closing metathesis), residues 1-4) [HBS 15^]	< 10
FEGIYRTDILRTEEGN (staple (positions not given here); also: HBS: N-terminal main-chain i,i+4 H-bond replaced by C-C bond (ring-closing metathesis), residues 1-4) [HBS 1]	11
FEGIYRLELLKAEEAN (staple (positions not given here); also: HBS: N-terminal main-chain i,i+4 H-bond replaced by C-C bond (ring-closing metathesis), residues 1-4) [HBS 7]	64
FEGIYRLEKLKAEEANRR (staple (positions not given here); also: HBS: N-terminal main-chain i,i+4 H-bond replaced by C-C bond (ring-closing metathesis), residues 1-4) [HBS 16]	56
FEGIYRLELLK[Aib]EE[Aib]N (staple (positions not given here); not fully specified (C-terminus, bridges); also: hydrogen bond surrogate: N-terminal main-chain i,i+4 H-bond replaced by C-C bond) [HBS 11]	20
FEGLLRLWLRKAEEAN (staple (positions not given here); also: HBS: N-terminal main-chain i,i+4 H-bond replaced by C-C bond (ring-closing metathesis), residues 1-4) [HBS 12]	55
FEGIYRTDILRTEEGN [Peptide 1]	13
FEGIYRTELLKAEEAN (staple (positions not given here); also: HBS: N-terminal main-chain i,i+4 H-bond replaced by C-C bond (ring-closing metathesis), residues 1-4) [HBS 6]	40
FEGLLRLWLRK[Aib]EE[Aib]N (staple (positions not given here); not fully specified (C-terminus, bridges); also: hydrogen bond surrogate: N-terminal main-chain i,i+4 H-bond replaced by C-C bond) [HBS 10]	60
FGEGIYRTDILRTEEGN [Peptide 2]	< 10
AEGIYRLELLKAEAAA (staple (positions not given here); also: HBS: N-terminal main-chain i,i+4 H-bond replaced by C-C bond (ring-closing metathesis), residues 1-4) [HBS 7^mut]	15
FEGIYRLELLK (staple (positions not given here); also: HBS: N-terminal main-chain i,i+4 H-bond replaced by C-C bond (ring-closing metathesis), residues 1-4) [HBS 8]	< 5
AEGIYRTDILRTEEGN [Peptide 3]	< 10
FEAIYRLELLKAEEAN (staple (positions not given here); also: HBS: N-terminal main-chain i,i+4 H-bond replaced by C-C bond (ring-closing metathesis), residues 1-4) [HBS 13]	50
FEGLLRLWLRK[Aib]EEAN (staple (positions not given here); not fully specified (C-terminus, bridges); also: hydrogen bond surrogate: N-terminal main-chain i,i+4 H-bond replaced by C-C bond) [HBS 9]	35

The remaining lines, values ahead:

% Inhibition (Sos-mediated nucleotide exchange from Ras, mantGDP) [%]	Binder
< 10	FEGIYRTDILR [Peptide 5]
40	FEAIYRLELLKAEEAN [Peptide 13]
30	FEGIYRLELLK[Aib]EE[Aib]N [Peptide 11]
< 10	AEGIYRADILRTEEGN [Peptide 4]
20	FEGIYRTELLKAEEAN [Peptide 6]
50	FEAIYRLEKLKAEEAN [Peptide 15]
37	FEGIYRLELLKAEEAN [Peptide 7]
50	FEGLLRLWLRK[Aib]EE[Aib]N [Peptide 10]
< 5	FEGIYRLELLK [Peptide 8]
50	FEGLLRLWLRKAEEAN [Peptide 12]

From US10221215 (NEW YORK UNIVERSITY, dated 2019)
